The subject of the data set is Bacillus subtilis DB104 (SP-AmyQ fusion secretion). Description: AmyQ secretion efficiency, weighted average sort bin (1 = best secretion, 10 = worst) (bin number (weighted average, 1-10)); higher = lower secretion efficiency. In short, it runs like this:
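The secretion score was taken as the read-frequency-weighted mean bin number, normalised to beads per bin, with low-abundance sequences excluded. Bins came from large-particle flow cytometry sorting of occupied alginate beads (~65 nL, about 0.3 cells each, with fluorescein-starch) into 10 equally populated groups by green/red fluorescence ratio after about 13 h at room temperature and nile red staining. The cells were a B. subtilis DB104 library with mature AmyQ fused to designed signal peptides, integrated at amyE, and each bin's amplicons were Illumina-sequenced.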

Where “and” joins values, the source holds several entries; their conditions need not be identical. Equal entries are not always repeated.

As to MGLGKKLSVAVAASFMSLSISLDEEDDEVQAAEG, the AmyQ secretion efficiency stood at 1.62.

For the sequence MGLGKKLSVAVAASFMSLSISLFVVQAAEG, the AmyQ secretion efficiency was found to be 3.73.

For the sequence MGLGKKLSVAVAASFMSLSISLKRRRKRVQAAEG, the AmyQ secretion efficiency turned out to be 7.64.

Turning to “MGLGKKLSVAVAASFMSLSISLPGAVGPGFPTFPSVQAAEG”, the AmyQ secretion efficiency amounted to 1.21.

In turn, MGLGKKLSVAVAASFMSLSISLPGCQAAEG yielded an AmyQ secretion efficiency of 1.48.

MGLGKKLSVAVAASFMSLSISLPGEQAAEG returned an AmyQ secretion efficiency of 3.68.

MGLGKKLSVAVAASFMSLSISLPGGPAVQAAEG showed an AmyQ secretion efficiency of 1.61.

MGLGKKLSVAVAASFMSLSISLPGGQAAEG yielded an AmyQ secretion efficiency of 1.55.

As to MGLGKKLSVAVAASFMSLSISLPGIQAAEG, the AmyQ secretion efficiency was 1.56.

For MGLGKKLSVAVAASFMSLSISLPGKQAAEG, the AmyQ secretion efficiency turned out to be 4.55.

Sequence MGLGKKLSVAVAASFMSLSISLPGLQAAEG registered an AmyQ secretion efficiency of 1.65.

Sequence MGLGKKLSVAVAASFMSLSISLPGQQAAEG displayed an AmyQ secretion efficiency of 3.99.

In the case of MGLGKKLSVAVAASFMSLSISLPGRQAAEG, the AmyQ secretion efficiency was 3.87.

With MGLGKKLSVAVAASFMSLSISLPGSQAAEG, the AmyQ secretion efficiency worked out at 2.3.

As for MGLGKKLSVAVAASFMSLSISLPGTQAAEG, the AmyQ secretion efficiency was 1.77.

Sequence MGLGKKLSVAVAASFMSLSISLPGVAAGFVFVQAAEG showed an AmyQ secretion efficiency of 4.93.

On to MGLGKKLSVAVAASFMSLSISLPGVQAAED, for which the AmyQ secretion efficiency came to 2.84.

MGLGKKLSVAVAASFMSLSISLPGVQAAPG showed an AmyQ secretion efficiency of 2.04.

Sequence MGLGKKLSVAVAASFMSLSISLPGVQAAPR registered an AmyQ secretion efficiency of 2.88.

The sequence MGLGKKLSVAVAASFMSLSISLPGVQAEDD yielded an AmyQ secretion efficiency of 4.28.

Regarding MGLGKKLSVAVAASFMSLSISLPGVQARKR, the AmyQ secretion efficiency came to 6.96.

Sequence MGLGKKLSVAVAASFMSLSISLPGVQCAEG gave an AmyQ secretion efficiency of 2.75.

On to MGLGKKLSVAVAASFMSLSISLPGVQDAEG, for which the AmyQ secretion efficiency came to 3.93.

MGLGKKLSVAVAASFMSLSISLPGVQEAEG returned an AmyQ secretion efficiency of 6.02.

Consider MGLGKKLSVAVAASFMSLSISLPGVQFAEG, for which the AmyQ secretion efficiency came to 4.64.

Sequence MGLGKKLSVAVAASFMSLSISLPGVQGAEG gave an AmyQ secretion efficiency of 1.9.

On to MGLGKKLSVAVAASFMSLSISLPGVQHAEG, for which the AmyQ secretion efficiency came out at 3.41.

Sequence MGLGKKLSVAVAASFMSLSISLPGVQKAEG came in with an AmyQ secretion efficiency of 3.62.

In turn, MGLGKKLSVAVAASFMSLSISLPGVQLAEG returned an AmyQ secretion efficiency of 4.12.

In turn, MGLGKKLSVAVAASFMSLSISLPGVQMAEG registered an AmyQ secretion efficiency of 3.92.

Sequence MGLGKKLSVAVAASFMSLSISLPGVQNAEG showed an AmyQ secretion efficiency of 2.95.

Consider MGLGKKLSVAVAASFMSLSISLPGVQPAEG, for which the AmyQ secretion efficiency was determined as 4.8.

Sequence MGLGKKLSVAVAASFMSLSISLPGVQQAEG registered an AmyQ secretion efficiency of 3.24.

Take MGLGKKLSVAVAASFMSLSISLPGVQRAEG: the AmyQ secretion efficiency was found to be 2.64.

MGLGKKLSVAVAASFMSLSISLPGVQSAEG came in with an AmyQ secretion efficiency of 3.87.

On to MGLGKKLSVAVAASFMSLSISLPGVQTAEG, for which the AmyQ secretion efficiency was determined as 3.78.

In turn, MGLGKKLSVAVAASFMSLSISLPGVQVAEG showed an AmyQ secretion efficiency of 3.6.

The sequence MGLGKKLSVAVAASFMSLSISLPGVQWAEG returned an AmyQ secretion efficiency of 3.19.

Turning to MGLGKKLSVAVAASFMSLSISLPGVQYAEG, the AmyQ secretion efficiency came out at 4.06.

MGLGKKLSVAVAASFMSLSISLPGWQAAEG returned an AmyQ secretion efficiency of 5.06.

As to MGLGKKLSVAVAASFMSLSISLPVQAAEG, the AmyQ secretion efficiency came to 1.35.

Turning to MGLGKKLSVAVAASFMSLSISLRKKVQAAEG, the AmyQ secretion efficiency amounted to 8.03.

With MGLGKKLSVAVAASFMSLSISLSPGVQAAEG, the AmyQ secretion efficiency was found to be 1.19.

Sequence MGLGKKLSVAVAASFMSLSISLVSVQAAEG gave an AmyQ secretion efficiency of 1.37.

As to MGLGKKLSVAVAASFMSLSPGVQAAEG, the AmyQ secretion efficiency was determined as 1.73.

As to MGLGKKLSVAVAASFPGVQAAEG, the AmyQ secretion efficiency is 7.32.

Consider MGLGKKNLNTMFLSVAVAASFMSLSISLPGVQAAEG, for which the AmyQ secretion efficiency amounted to 2.66.

MGLGLLLSVAVAASFMSLSISLPGVQAAEG gave an AmyQ secretion efficiency of 2.94.

MGLGTTFLSVAVAASFMSLSISLPGVQAAEG gave an AmyQ secretion efficiency of 2.45.

MGLKKRVSMFLVALTMCGGLFVTPAKAVKT: the AmyQ secretion efficiency is 3.29.

MGMKKKLRKKRASAALGLALVGGGTWAAFN: the AmyQ secretion efficiency was found to be 5.51.

MGMKKKLSLGVASAAGGTWAAFN yielded an AmyQ secretion efficiency of 8.23.

MGMKKKLSLGVASAALGLALVGGGGWAAFN returned an AmyQ secretion efficiency of 6.46.

Sequence MGMKKKLSLGVASAALGLALVGGGQWAAFN gave an AmyQ secretion efficiency of 5.94.

The sequence MGMKKKLSLGVASAALGLALVGGGSWAAFN yielded an AmyQ secretion efficiency of 6.13.

Sequence MGMKKKLSLGVASAALGLALVGGGTWCAFN showed an AmyQ secretion efficiency of 4.28.

MGMKKKLSLGVASAALGLALVGGGTWFAFN yielded an AmyQ secretion efficiency of 7.33.

For the sequence MGMKKKLSLGVASAALGLALVGGGTWGAFN, the AmyQ secretion efficiency was 7.37.

Take MGMKKKLSLGVASAALGLALVGGGTWKAFN: the AmyQ secretion efficiency is 5.21.

MGMKKKLSLGVASAALGLALVGGGTWNAFN yielded an AmyQ secretion efficiency of 6.68.

Turning to MGMKKKLSLGVASAALGLALVGGGWWAAFN, the AmyQ secretion efficiency was determined as 7.18.

On to MGMKKKLSLGVASAALGLALVGKKRTWAAFN, for which the AmyQ secretion efficiency turned out to be 8.1.

MGMKKKLSLGVASAALGLALVGRRKRKKTWAAFN showed an AmyQ secretion efficiency of 6.59.

For the sequence MGMKKKSRTGVASAALGLALVGGGTWAAFN, the AmyQ secretion efficiency worked out at 5.34.

For the sequence MGMKKKYTQGSRYRALGLALVGGGTWAAFN, the AmyQ secretion efficiency turned out to be 7.3.

In turn, MGMKRVITCVMAASLTLGSLLPAGYATAKED returned an AmyQ secretion efficiency of 6.01.

As for MGMLFKIIGWILLLCIIPLFAFTVIASGKEV, the AmyQ secretion efficiency was found to be 2.66.

Consider MGMTSNLSLGVASAALGLALVGGGTWAAFN, for which the AmyQ secretion efficiency stood at 8.22.

Turning to MGQGKGSVFLILLLMLTLVVAPKEKAEAASS, the AmyQ secretion efficiency worked out at 1.82.

MGRFLIGAGVAAVILSGWFIADHQTHSQEM registered an AmyQ secretion efficiency of 6.17.

For MGRFSTAYLLLGILCSAAVFLIGAPSRALGAEV, the AmyQ secretion efficiency came to 2.59.

For the sequence MGRIKTKITILLVLLLLLAGGYMYIN, the AmyQ secretion efficiency is 5.89 and 6.33 and 5.86.

As to MGRIKTKITILLVLLLLLAGGYTYIN, the AmyQ secretion efficiency amounted to 5.32.

Turning to MGRIKTKITILLVLLLLLAGGYWYIN, the AmyQ secretion efficiency worked out at 6.88.

MGRIKTKITILLVLLLLLAGPYMYIN had an AmyQ secretion efficiency of 7.19.

For MGRIKTKITILLVLLLLLAGTYMYIN, the AmyQ secretion efficiency is 6.42.

Regarding MGSGTIWTIILGALLVCCIAVAYTLTKSQAGASSS, the AmyQ secretion efficiency came to 7.61.

In turn, MGSGTSMLFSTLALAAGMTAAAAGGAGTIHAQQP registered an AmyQ secretion efficiency of 2.01.

As to MGSLTKTSLLLAGLCTAAQMVFVTHASAEES, the AmyQ secretion efficiency was 4.02.

MGSRTIWTIILGALLVCCIAVAYTLTKSQAGASSS came in with an AmyQ secretion efficiency of 5.01.

Sequence MGSSILLSSLAISALSLGLLVSAPTASFAAES registered an AmyQ secretion efficiency of 3.62.

MGSSLAAGLTASAIVGTTLVVTPAEAATI yielded an AmyQ secretion efficiency of 4.99.

In turn, MGSTGSIMFACLILFSFTITTFINTETISAFSN returned an AmyQ secretion efficiency of 4.71.

As to MGSTSFILWISLLFALTLIFTMAFSNMSAQAAGK, the AmyQ secretion efficiency was 6.79.

The sequence MGSTWSLIVCLTALLSVLLVAGSVPFHAEAKKP showed an AmyQ secretion efficiency of 4.11.

For the sequence MGTFSTASILLLGILCSAAVFLIGAPSRALGAEV, the AmyQ secretion efficiency is 2.99.

The sequence MGTLTTLTSLLLAGLCTAAQMVFVTHASAEES yielded an AmyQ secretion efficiency of 3.24.

Consider MGTTIIILLLAVIIAAAAAGVAFYV, for which the AmyQ secretion efficiency worked out at 7.47.

As to MGTTIVAGLAVSAVVGSSMAAAPAEAKTI, the AmyQ secretion efficiency came to 6.13.

As for MHLIRAAGAVCLARFNEDQHQAEGENT, the AmyQ secretion efficiency turned out to be 8.19.

MHLIRAAGAVCLAVVLIAGCAFNEDQHQAEGENT came in with an AmyQ secretion efficiency of 5.56.

The sequence MHLIRAAGAVCLAVVLIAGCRDEEDEHQAEGENT yielded an AmyQ secretion efficiency of 4.66.

Consider MHLIRAAGAVCLAVVLIAGCREAEGENT, for which the AmyQ secretion efficiency was found to be 4.69.

In turn, MHLIRAAGAVCLAVVLIAGCRFGSIIVSAEGENT had an AmyQ secretion efficiency of 5.81.

For MHLIRAAGAVCLAVVLIAGCRFIIVAIGAEGENT, the AmyQ secretion efficiency came out at 6.53.

In turn, MHLIRAAGAVCLAVVLIAGCRFNEDQAEGENT came in with an AmyQ secretion efficiency of 5.78.

Consider MHLIRAAGAVCLAVVLIAGCRFNEDQHQAEDENT, for which the AmyQ secretion efficiency turned out to be 5.99.

MHLIRAAGAVCLAVVLIAGCRFNEDQHQAEEENT: the AmyQ secretion efficiency is 4.77.

In the case of MHLIRAAGAVCLAVVLIAGCRFNEDQHQAEGDED, the AmyQ secretion efficiency is 6.29.

For MHLIRAAGAVCLAVVLIAGCRFNEDQHQAEGENT, the AmyQ secretion efficiency was 5.94 and 6.42.

For the sequence MHLIRAAGAVCLAVVLIAGCRFNEDQHQAEGRRR, the AmyQ secretion efficiency came out at 5.26.

Take MHLIRAAGAVCLAVVLIAGCRFNEDQHQAEHENT: the AmyQ secretion efficiency was 3.89.

In turn, MHLIRAAGAVCLAVVLIAGCRFNEDQHQAELENT yielded an AmyQ secretion efficiency of 6.53.

In the case of MHLIRAAGAVCLAVVLIAGCRFNEDQHQAEMENT, the AmyQ secretion efficiency is 6.08.

MHLIRAAGAVCLAVVLIAGCRFNEDQHQAENENT displayed an AmyQ secretion efficiency of 5.95.

MHLIRAAGAVCLAVVLIAGCRFNEDQHQAEPENT displayed an AmyQ secretion efficiency of 6.25.
